Reference: PMC5035230 (Biochimica et biophysica acta, 2016)

Target: the molecule itself
Assay: HDX-MS

| Protein | binding result |
| --- | --- |
| P453L-hE3 (pathogenic variant of human dihydrolipoamide dehydrogenase) (enzyme, UniProt P09622 36-509, looked up) ADQPIDADVTVIGSGPGGYVAAIKAAQLGFKTVCIEKNETLGGTCLNVGCIPSKALLNNSHYYHMAHGKDFASRGIEMSEVRLNLDKMMEQKSTAVKALTGGIAHLFKQNKVVHVNGYGKITGKNQVTATKADGGTQVIDTKNILIATGSEVTPFPGITIDEDTIVSSTGALSLKKVPEKMVVIGAGVIGVELGSVWQRLGADVTAVEFLGHVGGVGIDMEISKNFQRILQKQGFKFKLNTKVTGATKKSDGKIDVSIEAASGGKAEVITCDVLLVCIGRRPFTKNLGLEELGIELDPRGRIPVNTRFQTKIPNIYAIGDVVAGPMLAHKAEDEGIICVEGMAGGAVHIDYNCVPSVIYTHPEVAWVGKSEEQLKEEGIEYKVGKFPFAANSRAKTNADTDGMVKILGQKSTDRVLGAHILGPGAGEMVNEAALALEYGASCEDIARVCHAHLTLSEAFREANLAASFGKSINF | binds |
| R447G-hE3 (pathogenic variant of human dihydrolipoamide dehydrogenase) (enzyme, UniProt P09622 36-509, looked up) ADQPIDADVTVIGSGPGGYVAAIKAAQLGFKTVCIEKNETLGGTCLNVGCIPSKALLNNSHYYHMAHGKDFASRGIEMSEVRLNLDKMMEQKSTAVKALTGGIAHLFKQNKVVHVNGYGKITGKNQVTATKADGGTQVIDTKNILIATGSEVTPFPGITIDEDTIVSSTGALSLKKVPEKMVVIGAGVIGVELGSVWQRLGADVTAVEFLGHVGGVGIDMEISKNFQRILQKQGFKFKLNTKVTGATKKSDGKIDVSIEAASGGKAEVITCDVLLVCIGRRPFTKNLGLEELGIELDPRGRIPVNTRFQTKIPNIYAIGDVVAGPMLAHKAEDEGIICVEGMAGGAVHIDYNCVPSVIYTHPEVAWVGKSEEQLKEEGIEYKVGKFPFAANSRAKTNADTDGMVKILGQKSTDRVLGAHILGPGAGEMVNEAALALEYGASCEDIAGVCHAHPTLSEAFREANLAASFGKSINF | binds |
| I445M-hE3 (pathogenic variant of human dihydrolipoamide dehydrogenase) (enzyme, UniProt P09622 36-509, looked up) ADQPIDADVTVIGSGPGGYVAAIKAAQLGFKTVCIEKNETLGGTCLNVGCIPSKALLNNSHYYHMAHGKDFASRGIEMSEVRLNLDKMMEQKSTAVKALTGGIAHLFKQNKVVHVNGYGKITGKNQVTATKADGGTQVIDTKNILIATGSEVTPFPGITIDEDTIVSSTGALSLKKVPEKMVVIGAGVIGVELGSVWQRLGADVTAVEFLGHVGGVGIDMEISKNFQRILQKQGFKFKLNTKVTGATKKSDGKIDVSIEAASGGKAEVITCDVLLVCIGRRPFTKNLGLEELGIELDPRGRIPVNTRFQTKIPNIYAIGDVVAGPMLAHKAEDEGIICVEGMAGGAVHIDYNCVPSVIYTHPEVAWVGKSEEQLKEEGIEYKVGKFPFAANSRAKTNADTDGMVKILGQKSTDRVLGAHILGPGAGEMVNEAALALEYGASCEDMARVCHAHPTLSEAFREANLAASFGKSINF | binds |
| I358T-hE3 (pathogenic variant of human dihydrolipoamide dehydrogenase) (enzyme, UniProt P09622 36-509, looked up) ADQPIDADVTVIGSGPGGYVAAIKAAQLGFKTVCIEKNETLGGTCLNVGCIPSKALLNNSHYYHMAHGKDFASRGIEMSEVRLNLDKMMEQKSTAVKALTGGIAHLFKQNKVVHVNGYGKITGKNQVTATKADGGTQVIDTKNILIATGSEVTPFPGITIDEDTIVSSTGALSLKKVPEKMVVIGAGVIGVELGSVWQRLGADVTAVEFLGHVGGVGIDMEISKNFQRILQKQGFKFKLNTKVTGATKKSDGKIDVSIEAASGGKAEVITCDVLLVCIGRRPFTKNLGLEELGIELDPRGRIPVNTRFQTKIPNIYAIGDVVAGPMLAHKAEDEGIICVEGMAGGAVHIDYNCVPSVTYTHPEVAWVGKSEEQLKEEGIEYKVGKFPFAANSRAKTNADTDGMVKILGQKSTDRVLGAHILGPGAGEMVNEAALALEYGASCEDIARVCHAHPTLSEAFREANLAASFGKSINF | binds |
| I318T-hE3 (pathogenic variant of human dihydrolipoamide dehydrogenase) (enzyme, UniProt P09622 36-509, looked up) ADQPIDADVTVIGSGPGGYVAAIKAAQLGFKTVCIEKNETLGGTCLNVGCIPSKALLNNSHYYHMAHGKDFASRGIEMSEVRLNLDKMMEQKSTAVKALTGGIAHLFKQNKVVHVNGYGKITGKNQVTATKADGGTQVIDTKNILIATGSEVTPFPGITIDEDTIVSSTGALSLKKVPEKMVVIGAGVIGVELGSVWQRLGADVTAVEFLGHVGGVGIDMEISKNFQRILQKQGFKFKLNTKVTGATKKSDGKIDVSIEAASGGKAEVITCDVLLVCIGRRPFTKNLGLEELGIELDPRGRIPVNTRFQTKIPNIYATGDVVAGPMLAHKAEDEGIICVEGMAGGAVHIDYNCVPSVIYTHPEVAWVGKSEEQLKEEGIEYKVGKFPFAANSRAKTNADTDGMVKILGQKSTDRVLGAHILGPGAGEMVNEAALALEYGASCEDIARVCHAHPTLSEAFREANLAASFGKSINF | binds |
| K37E-hE3 (pathogenic variant of human dihydrolipoamide dehydrogenase) (enzyme, UniProt P09622 36-509, looked up) ADQPIDADVTVIGSGPGGYVAAIKAAQLGFKTVCIEENETLGGTCLNVGCIPSKALLNNSHYYHMAHGKDFASRGIEMSEVRLNLDKMMEQKSTAVKALTGGIAHLFKQNKVVHVNGYGKITGKNQVTATKADGGTQVIDTKNILIATGSEVTPFPGITIDEDTIVSSTGALSLKKVPEKMVVIGAGVIGVELGSVWQRLGADVTAVEFLGHVGGVGIDMEISKNFQRILQKQGFKFKLNTKVTGATKKSDGKIDVSIEAASGGKAEVITCDVLLVCIGRRPFTKNLGLEELGIELDPRGRIPVNTRFQTKIPNIYAIGDVVAGPMLAHKAEDEGIICVEGMAGGAVHIDYNCVPSVIYTHPEVAWVGKSEEQLKEEGIEYKVGKFPFAANSRAKTNADTDGMVKILGQKSTDRVLGAHILGPGAGEMVNEAALALEYGASCEDIARVCHAHPTLSEAFREANLAASFGKSINF | binds |
| R460G-hE3 (pathogenic variant of human dihydrolipoamide dehydrogenase) (enzyme, UniProt P09622 36-509, looked up) ADQPIDADVTVIGSGPGGYVAAIKAAQLGFKTVCIEKNETLGGTCLNVGCIPSKALLNNSHYYHMAHGKDFASRGIEMSEVRLNLDKMMEQKSTAVKALTGGIAHLFKQNKVVHVNGYGKITGKNQVTATKADGGTQVIDTKNILIATGSEVTPFPGITIDEDTIVSSTGALSLKKVPEKMVVIGAGVIGVELGSVWQRLGADVTAVEFLGHVGGVGIDMEISKNFQRILQKQGFKFKLNTKVTGATKKSDGKIDVSIEAASGGKAEVITCDVLLVCIGRRPFTKNLGLEELGIELDPRGRIPVNTRFQTKIPNIYAIGDVVAGPMLAHKAEDEGIICVEGMAGGAVHIDYNCVPSVIYTHPEVAWVGKSEEQLKEEGIEYKVGKFPFAANSRAKTNADTDGMVKILGQKSTDRVLGAHILGPGAGEMVNEAALALEYGASCEDIARVCHAHPTLSEAFGEANLAASFGKSINF | binds |
| G194C-hE3 (pathogenic variant of human dihydrolipoamide dehydrogenase) (enzyme, UniProt P09622 36-509, looked up) ADQPIDADVTVIGSGPGGYVAAIKAAQLGFKTVCIEKNETLGGTCLNVGCIPSKALLNNSHYYHMAHGKDFASRGIEMSEVRLNLDKMMEQKSTAVKALTGGIAHLFKQNKVVHVNGYGKITGKNQVTATKADGGTQVIDTKNILIATGSEVTPFPGITIDEDTIVSSTGALSLKKVPEKMVVIGAGVIGVELCSVWQRLGADVTAVEFLGHVGGVGIDMEISKNFQRILQKQGFKFKLNTKVTGATKKSDGKIDVSIEAASGGKAEVITCDVLLVCIGRRPFTKNLGLEELGIELDPRGRIPVNTRFQTKIPNIYAIGDVVAGPMLAHKAEDEGIICVEGMAGGAVHIDYNCVPSVIYTHPEVAWVGKSEEQLKEEGIEYKVGKFPFAANSRAKTNADTDGMVKILGQKSTDRVLGAHILGPGAGEMVNEAALALEYGASCEDIARVCHAHPTLSEAFREANLAASFGKSINF | binds |
| E340K-hE3 (pathogenic variant of human dihydrolipoamide dehydrogenase) (enzyme, UniProt P09622 36-509, looked up) ADQPIDADVTVIGSGPGGYVAAIKAAQLGFKTVCIEKNETLGGTCLNVGCIPSKALLNNSHYYHMAHGKDFASRGIEMSEVRLNLDKMMEQKSTAVKALTGGIAHLFKQNKVVHVNGYGKITGKNQVTATKADGGTQVIDTKNILIATGSEVTPFPGITIDEDTIVSSTGALSLKKVPEKMVVIGAGVIGVELGSVWQRLGADVTAVEFLGHVGGVGIDMEISKNFQRILQKQGFKFKLNTKVTGATKKSDGKIDVSIEAASGGKAEVITCDVLLVCIGRRPFTKNLGLEELGIELDPRGRIPVNTRFQTKIPNIYAIGDVVAGPMLAHKAEDEGIICVKGMAGGAVHIDYNCVPSVIYTHPEVAWVGKSEEQLKEEGIEYKVGKFPFAANSRAKTNADTDGMVKILGQKSTDRVLGAHILGPGAGEMVNEAALALEYGASCEDIARVCHAHPTLSEAFREANLAASFGKSINF | binds |
| D444V-hE3 (pathogenic variant of human dihydrolipoamide dehydrogenase) (enzyme, UniProt P09622 36-509, looked up) ADQPIDADVTVIGSGPGGYVAAIKAAQLGFKTVCIEKNETLGGTCLNVGCIPSKALLNNSHYYHMAHGKDFASRGIEMSEVRLNLDKMMEQKSTAVKALTGGIAHLFKQNKVVHVNGYGKITGKNQVTATKADGGTQVIDTKNILIATGSEVTPFPGITIDEDTIVSSTGALSLKKVPEKMVVIGAGVIGVELGSVWQRLGADVTAVEFLGHVGGVGIDMEISKNFQRILQKQGFKFKLNTKVTGATKKSDGKIDVSIEAASGGKAEVITCDVLLVCIGRRPFTKNLGLEELGIELDPRGRIPVNTRFQTKIPNIYAIGDVVAGPMLAHKAEDEGIICVEGMAGGAVHIDYNCVPSVIYTHPEVAWVGKSEEQLKEEGIEYKVGKFPFAANSRAKTNADTDGMVKILGQKSTDRVLGAHILGPGAGEMVNEAALALEYGASCEVIARVCHAHPTLSEAFREANLAASFGKSINF | binds |
